Measured values from IntAct's records for PubMed 21822214.

B1: B-cell linker protein (Homo sapiens), Q8WV28 (parent)
chain: MDKLNKITVPASQKLRQLQKMVHDIKNNEGGIMNKIKKLKVKAPPSVPRRDYASESPADEEEQWSDDFDSDYENPDEHSDSEMYVMPAEENADDSYEPPPVEQETRPVHPALPFARGEYIDNRSSQRHSPPFSKTLPSKPSWPSEKARLTSTLPALTALQKPQVPPKPKGLLEDEADYVVPVEDNDENYIHPTESSSPPPEKAPMVNRSTKPNSSTPASPPGTASGRNSGAWETKSPPPAAPSPLPRAGKKPTTPLKTTPVASQQNASSVCEEKPIPAERHRGSSHRQEAVQSPVFPPAQKQIHQKPIPLPRFTEGGNPTVDGPLPSFSSNSTISEQEAGVLCKPWYAGACDRKSAEEALHRSNKDGSFLIRKSSGHDSKQPYTLVVFFNKRVYNIPVRFIEATKQYALGRKKNGEEYFGSVAEIIRNHQHSPLVLIDSQNNTKDSTRLKYAVKVS

Variants of: B1
Conditions: with cd2ap_human CD2AP

Row | Variant | effect of a mutation on the interaction
1 | R49A;R247A;R312A | disrupting interaction
